Patent US20240342244A1, “Isthmin Protein Therapeutics for the Treatment of Non-Alcoholic Fatty Liver Disease” (The Board of Trustees of the Leland Stanford Junior …, priority 2021, published 2024)

Tests used:
pAKT^S473 = experiment: pAKT S473 signaling in 3T3-F442A cells (phosphokinase array, western blot); type: cell-based
Method: (§1) Western blots and molecular analyses. For western blotting, homogenized tissues or whole-cell lysates, samples were lysed in RIPA buffer containing protease inhibitor cocktail (Roche) and phosphatase inhibitor cocktail (Roche). Cell lysates were centrifuged at 14,000×g for 15 min and supernatants were prepared in 4×LDS Sample Buffer (Invitrogen) and separated by SDS-PAGE and transferred to Immobilon 0.45 μm membranes (Millipore). For Western blotting of plasma samples, 1 μl of plasma was prepared in 2× sample buffer (Invitrogen) with reducing agent, boiled, and analyzed using Western blot against indicated antibody. Protein kinase array (R&D systems ARY003B) was performed according to the manufacturers' description. All antibodies used in this paper are described in STAR methods.

NAFLD mice = experiment: Therapeutic administration for 14 days in mice with established NAFLD; type: in vivo, mouse
Method: Therapeutic ISM1 recombinant protein administration in vivo. All pharmacologic studies using recombinant ISM1 protein were performed in mice with established diet-induced obesity or non-alcoholic fatty liver disease (NAFLD). For all experiments, male C57BL/6J mice purchased from Jax were fed either a high-fat diet (#D12492, Research Diets) or a NAFLD diet (#D09100310, Research Diets) prior to ISM1 protein injections. In all experiments, mice were mock injected with saline for three days prior to protein or drug injections to prevent stress-induced weight loss. Mice were I.P. injected with vehicle (saline) or indicated doses of ISM1 protein diluted in saline. For the 14-day experiments in NAFLD mice, 7-weeks old mice were fed with NAFLD diet for 3 weeks and then mock injected with saline for 3 days prior to protein injections. The induction of lipid accumulation with NAFLD diet was verified by the significant increase in hepatic lipid levels compared with mice on chow diet at the same time point. NAFLD mice were then daily I.P. injected with either vehicle (saline containing 5% DMSO and 10% Kolliphor) or indicated doses of ISM1 protein (500 μg/kg or 5 mg/kg) or with FXR agonist (30 mg/kg, GW4064, Sigma-Aldrich, #G5172) diluted in vehicle (saline containing 5% DMSO and 10% Kolliphor). For the 21-day experiments in HFD mice, mice were mock injected with saline for three days prior to protein injections. Mice were then daily I.P. injected with either vehicle (saline) or 5 mg/kg of ISM1 protein diluted in saline. Metformin (100 mg/kg, Sigma, #317240) was diluted in saline and daily administered by oral gavage. All groups received control injections by I.P. and oral gavage. At the end of the experiments, mice and tissue weights were recorded. Tissues and plasma were collected and frozen for further analyses.
Immunohistochemistry. For H&E staining, livers were formalin-fixed, paraffin-embedded, and sectioned at 6 μm. For hematoxylin and eosin (H&E) staining, sections were deparaffinized and […] with xylenes and ethanol. Briefly, slides were stained with hematoxylin, washed with water and 95% ethanol, and stained with eosin for 30 min. Sections were then incubated with ethanol and xylene, and mounted with mounting medium. For Oil red O stainings, frozen liver tissue slides were fixed with 3% formalin in PBS, washed twice with water, incubated with 60% isopropanol for 5 min and then incubated with Oil Red O solution (3:2 ratio of Oil Red O:H2O) for 20 min. […] Digital images were captured with a Nikon Digital Sight DS-Fi1 color camera and NIS-Elements acquisition software.

srebp1c = experiment: Lipogenic gene and SREBP-1c protein expression in primary adipocytes; type: cell-based, mouse
Method: Gene expression analysis. Total RNA from cultured cells or tissues was isolated using TRIzol (Thermo Fischer Scientific) and Rneasy mini kits (QIAGEN). RNA was reverse transcribed using the ABI high capacity cDNA synthesis kit. For qRT-PCR analysis, cDNA, primers and SYBR-green fluorescent dye (ABI) were used. Relative mRNA expression was determined by normalization with Cyclophilin levels using the ΔΔCt method.
as §1

pAKTS473 = experiment: In vivo pAKT S473 signaling in tissues after I.V. injection in DIO mice; parameters: species or system mouse
Method: as §1

GLUT4 = GLUT4 translocation to the plasma membrane in primary adipocytes (immunostaining, fractionation); type: cell-based, mouse; settings: 100 nM
Method: Biochemical analyses. Plasma insulin levels were measured using the Ultra-Sensitive Mouse Insulin ELISA kit (Crystal Chem Inc #90080). Plasma triglycerides were measured with Infinity triglyceride measurement kit (Thermo #TR22421) and tissue triglycerides were measured with a Triglyceride Colorimetric Assay Kit (Cayman #10010303). Lipolysis was measured in day 5 differentiated adipocytes after 4 hours of protein treatment using a glycerol release assay according to the protocol provided by the manufacturer (Abcam #ab133130). Plasma membrane protein extractions were performed according to the manufacturer's protocol (Abcam #ab65400).
Immunocytochemistry. Primary mouse preadipocytes were seeded onto collagen-coated 22 mm×22 mm coverslips and differentiated using the method above. On day 8, differentiated adipocytes were washed with PBS and starved in 0.5% BSA in KRH buffer (50 mM HEPES, 136 mM NaCl, 1.25 mM MgSO4, 1.25 mM CaCl2, 4.7 mM KCl, pH 7.4) for 3.5 h. Cells were treated with insulin or ISM1 for 30 min, followed by three washes with cold PBS. Cells were fixed with 4% PFA in PBS for 15 min at room temperature. After blocking with 2% BSA, 5% goat serum, 0.2% Triton-X in PBS for 1 hr, cells were incubated with diluted primary antibody at 4° C. overnight. The next day, cells were washed and incubated with secondary antibody on ice for 1 hr. Cells were imaged using confocal microscope (Leica TCS SP8). Hoechst (#33342, thermo fisher) was used as counterstain.

pS6^S235/S236 = experiment: Acute and long-term signaling in AML12 hepatocytes (western blot); type: cell-based, mouse
Method: as §1

[1] = insulin 1 nM up to 100 nM with 25 nM or 50 nM ISM1
[2] = 0.5 mg/kg daily for 14 days, vs vehicle-treated NAFLD mice
[3] = 5 mg/kg ISM1 vs 30 mg/kg GW4064, 14 days
[4] = 5 mg/kg daily for 14 days, vs vehicle-treated NAFLD mice

B1: ISM1: recombinant mouse ISM1 protein with a C-terminal myc-his tag generated in mammalian HEK 293 Expi cells (protein, UniProt A2ATD1 30-454, looked up)
Isthmin-1: SDRQDAAAGNNNLNLESDSTSETSFPLSKEAPEEHQVVHQPFPRQRFPPETGHPSLQRDGPRSFLLDLPNFPDLSKADINGQNPNIQVTIEVVDGPDSEAEKDQHPENKPSWSLPAPDWRAWWQRSLSLARTNSGDQDDKYDSTSDDSNFLSVPRGWDRPAPGHRTFETKEQPEYDSTDGEGDWSLWSVCSVTCGNGNQKRTRSCGYACIATESRTCDRPNCPGIEDTFRTAATEVSLLAGSEEFNATKLFEVDMDSCERWMSCKSEFLKKYMHKVINDLPSCPCSYPTEVAYSTADIFDRIKRKDFRWKDASGPKEKLEIYKPTARYCIRSMLSLESTTLAAQHCCYGDNMQLITRGKGAGTPNLISTEFSAELHYKVDVLPWIICKGDWSRYNEARPPNNGQKCTESPSDEDYIKQFQEAREY
modifications: C-terminal myc-His tag
notes: recombinant mouse ISM1 protein with a C-terminal myc-his tag generated in mammalian HEK 293 Expi cells
pAKT^S473 bioactivity compared with commercially available ISM1 protein (R&D systems) (pAKT^S473; 100 nM, 5 min): comparable bioactivities
top hit of phosphokinase array (43 proteins) (pAKT^S473; 100 nM, 5 min): phosphorylated protein kinase B (PKB)/AKT at S473
dose at which dose-dependent increase in pAKT^S473 phosphorylation starts (pAKT^S473; increasing doses, 5 min): 50 nM
AKT activity of ISM1 combined with insulin (pAKT^S473; [1]): additional effect
potentiation of insulin on AKT activity (pAKT^S473; [1]): no evidence of potentiation
fed blood glucose reduced (NAFLD mice; [2]): not
liver weights reduced (NAFLD mice; [2]): not
effect on liver weights, blood glucose and histological signs of steatosis compared with benchmark (NAFLD mice; [3]): as potent as the FXR agonist GW4064 treatment
reversal of hepatic steatosis compared with benchmark (NAFLD mice; [3]): performs equal to the FXR agonist GW4064
fed blood glucose (NAFLD mice; [4]): reduced
liver weights (NAFLD mice; [4]): reduced liver weights
hepatic Fatty Acid Synthase (FAS) protein levels (NAFLD mice; 5 mg/kg, 14 days): reduced hepatic Fatty Acid Synthase (FAS) protein levels
liver Oil red O staining (NAFLD mice; 5 mg/kg, 14 days): reduced Oil red O staining
gross liver morphology (NAFLD mice; 5 mg/kg, 14 days, vs vehicle treated NAFLD mice): obvious gross morphological changes in liver size and color
cleaved SREBP-1c protein levels (srebp1c; insulin-stimulated conditions): potently reduces the cleaved SREBP-1c protein levels
srebp1c, acc, fas and ChREBPβ gene expression (srebp1c; insulin-stimulated conditions): suppressing srebp1c and the lipogenesis target genes acc, fas, and ChREBPβ
srebp1c expression under basal conditions (srebp1c; primary adipocytes): no induction
pAKTS473 signaling in BAT and liver (pAKTS473; 10 mg/kg I.V., 10 min time point): transient inductions
pAKTS473 signaling in iWAT and skeletal muscle (pAKTS473; 10 mg/kg I.V., DIO mice): activates pAKTS473 signaling at 30 and 60 min
dose inducing the highest pAKTS473 response (pAKTS473; doses ranging from 0.1 mg/kg to 10 mg/kg, iWAT): 5 mg/kg
GLUT4 in plasma membrane fraction (biochemical fractionation) (GLUT4; 4 h): translocation of GLUT4 to the plasma membrane
GLUT4 at cell surface (immunostaining, confocal microscopy) (GLUT4; compared with control cells): higher levels of GLUT4 at cell surface
pS6^S235/S236 after long-term treatment (pS6^S235/S236; 24 h treatment): induces hyperactivation of pS6^S235/S236
acute signaling added to insulin (pS6^S235/S236; insulin 1 nM up to 100 nM with 25 nM or 50 nM ISM1, 5 min): do not result in any additional signaling changes
